Laboratory results as given in US20190338027A1 (ALLAKOS, published 2019).

Molecular target: human Siglec-8 on lung mast cells from COPD patients (human, UniProt Q9NYZ4 17-499)
Test: cell-based or functional assay

Sequence of human Siglec-8 on lung mast cells from COPD patients (Q9NYZ4 17-499): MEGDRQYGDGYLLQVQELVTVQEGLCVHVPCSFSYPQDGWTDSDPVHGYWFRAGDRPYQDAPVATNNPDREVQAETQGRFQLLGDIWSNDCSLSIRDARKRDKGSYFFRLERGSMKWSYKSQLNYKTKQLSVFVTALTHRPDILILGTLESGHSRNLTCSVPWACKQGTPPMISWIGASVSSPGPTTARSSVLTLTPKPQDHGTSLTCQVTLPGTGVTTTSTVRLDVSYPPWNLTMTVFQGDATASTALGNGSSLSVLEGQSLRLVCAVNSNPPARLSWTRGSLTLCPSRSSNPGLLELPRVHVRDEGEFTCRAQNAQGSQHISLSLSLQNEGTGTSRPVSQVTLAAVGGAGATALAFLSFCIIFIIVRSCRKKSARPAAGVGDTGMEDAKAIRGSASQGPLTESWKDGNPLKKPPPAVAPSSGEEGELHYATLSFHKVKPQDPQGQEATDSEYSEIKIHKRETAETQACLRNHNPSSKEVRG

- decrease in VEGF secreted into the cell supernatant by COPD lung tissue homogenates incubated overnight with antibody, relative to isotype control antibody: ~50%
B1: anti-Siglec-8 IgG4 antibody (HEKA) (antibody, V domains shown)
VH: EVQLVESGGGLVQPGGSLRLSCAASGFSLTIYGAHWVRQAPGKGLEWVGVIWAGGSTNYNSALMSRFTISKDNSKNTVYLQMNSLRAEDTAVYYCARDGSSPYYYSMEYWGQGTTVTVSS
VL: EIVLTQSPATLSLSPGERATLSCSATSSVSYMHWFQQKPGQAPRLLIYSTSNLASGIPARFSGSGSGTDFTLTISSLEPEDFAVYYCQQRSSYPFTFGPGTKLDIKR
